{"source": "patent US11103562B2", "about": "“Composition comprising alkaline phosphatase for use in the treatment of arthritides” (AMRIF BV, priority 2017, dated 2021)", "molecules": {"B1": {"name": "AP: human recombinant placenta alkaline phosphatase (hRESCAP; TNO, Zeist), an ectophosphatase (protein, UniProt P05187 23-506, looked up)", "Alkaline phosphatase, …": "IIPVEEENPDFWNREAAEALGAAKKLQPAQTAAKNLIIFLGDGMGVSTVTAARILKGQKKDKLGPEIPLAMDRFPYVALSKTYNVDKHVPDSGATATAYLCGVKGNFQTIGLSAAARFNQCNTTRGNEVISVMNRAKKAGKSVGVVTTTRVQHASPAGTYAHTVNRNWYSDADVPASARQEGCQDIATQLISNMDIDVILGGGRKYMFRMGTPDPEYPDDYSQGGTRLDGKNLVQEWLAKRQGARYVWNRTELMQASLDPSVTHLMGLFEPGDMKYEIHRDSTLDPSLMEMTEAALRLLSRNPRGFFLFVEGGRIDHGHHESRAYRALTETIMFDDAIERAGQLTSEEDTLSLVTADHSHVFSFGGYPLRGSSIFGLAPGKARDRKAYTVLLYGNGPGYVLKDGARPDVTESESGSPEYRQQSAVPLDEETHAGEDVAVFARGPQAHLVHGVQEQTFIAHVMAFAACLEPYTACDLAPPAGTTD"}}, "test": "AP plasma pharmacokinetics (enzymatic PNP assay) in healthy and arthritic rats", "format": "in vivo, rat", "details": "for persistence of increased plasma AP levels: 4 hour sampling", "description": "An enzymatic assay was used to determine plasma concentrations of alkaline phosphatase prior to and 0-4 hours after administration a dose of 700 U/kg AP to healthy rats and arthritic rats, FIG. 7. At time points 0, 15, 60, 120 and 240 min after AP administration, a blood sample was drawn from the tail vain of the rats and transferred to a lml Eppendorf microtube containing heparin (454081, Greiner bio-one, Charlotte, USA) as anti-coagulant. As a control, blood was drawn at the same time points from arthritic rats that were injected a t=0 with 500 μl PBS. Eppendorf tubes were centrifuged at 3,000×g for 5 min at 4° C., after which the plasma was collected and stored at −80° C. until use.\nThe enzymatic assay for AP is based on the conversion of the substrate paranitrophenol-phosphate (PNP; 104105, Sigma-Aldrich, Zwijdrecht, the Netherlands) to paranitrophenol which is measured spectrophotometrically at 405 nm at 25° C. To a 3 ml reaction cuvette was added 2.9 ml substrate solution (containing final concentrations of 25 mM glycine, 10 mM MgCl2, 3 mM PNP, adjusted to pH 9.6 with NaOH). The reaction was started by adding 30 μl of plasma sample, 1:1 diluted in enzyme diluent buffer (25 mM glycine, 1 mM MgCl2, 0.1 mM ZnCl2, 10% (v/v) glycerol, adjusted to pH 9.6 with NaOH). In parallel a reference cuvette was assayed without substrate. The reaction was followed on line for 5 min at 25° C. with continuous monitoring increase of absorbance at 405 nm using a (10037-434, VWR, Radnor, Pa.<USA) spectrophotometer. From the linear phase of A405 increments, AP activity in plasma samples (in U/L) was calculated from a standard curve with serial dilutions of a human recombinant placenta AP stock solution. One Unit of activity is defined as the amount of enzyme decomposing 1 μmol of PNP/min at 25° C."}
{"molecule": "B1", "values": [{"measurement": "maximum increase of plasma AP levels over baseline", "setting": "arthritic rats, 700 U/kg i.p.", "result": 1.7, "unit": "fold"}, {"measurement": "time for plasma AP levels to drop to basal levels", "setting": "arthritic rats, 700 U/kg i.p.", "result": "steadily returned to baseline levels"}, {"measurement": "time for plasma AP levels to drop to basal levels", "setting": "arthritic rats, 700 U/kg i.p., listed as hRESCAP", "result": "≤ 4", "unit": "h"}, {"measurement": "time to maximum (peak) plasma AP level", "setting": "healthy and arthritic rats, 700 U/kg i.p.", "result": 1, "unit": "h"}, {"measurement": "peak plasma levels above baseline", "setting": "healthy and arthritic rats, single i.p. dose of 700 U/kg", "result": "50-70%"}, {"measurement": "maximum increase of plasma AP levels over baseline", "setting": "healthy rats, 700 U/kg i.p.", "result": 1.5, "unit": "fold"}, {"measurement": "persistence of increased plasma AP levels", "setting": "healthy rats, 700 U/kg i.p.", "result": "retained for up to 4 hours"}, {"measurement": "persistence of increased plasma AP levels", "setting": "healthy rats, 700 U/kg i.p., listed as hRESCAP", "result": "remained stably higher above control level in plasma over 4 hours"}]}
